For one substance, fold decrease in limit of detection against Z-RLRGG-amino-luciferin results are on record in patent US20120058499A1, “Bioluminescent Detection of Protease Activity” (priority 2010, published 2012).

The experiment has as its target Ub(1-76)-aminoluciferin (human) (UniProt P0CG48). Description: cell-based or functional assay.

As to “UCHL3 (ubiquitin carboxyl-terminal hydrolase isozyme L3) (from UniProt P15374 1-230) (enzyme)”, the fold decrease in limit of detection against Z-RLRGG-amino-luciferin stood at 1000 fold.
